Experimental data as given in patent US20240376208A1 (AFFIMED, published 2024).

Key:
[1] = target: T1, biotinylated monomeric CD16A antigen (human, UniProt P08637 17-208, limits assumed, biotinylated (site not stated)); test: ELISA, biotinylated monomeric CD16A titrated on construct captured by coated His-tagged human BCMA extracellular domain
T1 construct: Soluble antigen; also called soluble CD16A antigen
Description: (§1) For the capturing approach, 96-well ELISA plates (Immuno Maxisorp, Nunc) were coated overnight at 4° C. with His-tagged human EGFR or BCMA extracellular domain at concentrations of 3.0 or 0.4 μg/mL, respectively. After blocking with 3% (w/v) skimmed milk powder dissolved in phosphate buffered saline (PBS), antigen coated plates were used for capturing of different multivalent bispecific engagers at concentrations of 3-5 μg/mL in PBS containing 0.3% (w/v) skimmed milk powder. After washing three times with 300 μL per well of PBS containing 0.1% (v/v) Tween 20, plates were incubated with serial dilutions of biotinylated dimeric or monomeric CD16A antigen in PBS containing 0.3% (w/v) skimmed milk powder for 1.5 h at room temperature. After washing, plates were incubated with the detection conjugate Streptavidin HRP, 1:10,000 diluted in PBS containing 0.3% (w/v) skimmed milk powder for 1 h followed by washing and incubation with tetramethylbenzidine substrate (Seramun) for 1-2 min. Reaction was stopped by addition of 0.5 M H₂SO₄ (100 μL/well). Absorbance was measured at 450 nm using a multiwell plate reader, plotted and EC₅₀ values were determined by fitting a nonlinear regression model to sigmoidal dose-response curves (four parameters logistic fit) using GraphPad Prism software.
(§2) Concentration dependent binding of antibody constructs to coated recombinant CD16A antigen, or of soluble monomeric or dimeric CD16 antigen variants to coated or target antigen captured antibody constructs was analyzed in ELISA. Half maximal binding concentrations (EC₅₀) were determined by fitting a nonlinear regression model to sigmoidal dose-response curves (four parameters logistic fit) using GraphPad Prism software.

[2] = target: T2, recombinant CD16A 158F fused to monomeric human Fc (human, UniProt P08637 17-208); test: ELISA, construct titrated on coated CD16A 158F fused to monomeric human Fc
T2 construct: also called recombinant CD16 antigen variant; not shown: monomeric human Fc
T2 sequence (P08637 17-208): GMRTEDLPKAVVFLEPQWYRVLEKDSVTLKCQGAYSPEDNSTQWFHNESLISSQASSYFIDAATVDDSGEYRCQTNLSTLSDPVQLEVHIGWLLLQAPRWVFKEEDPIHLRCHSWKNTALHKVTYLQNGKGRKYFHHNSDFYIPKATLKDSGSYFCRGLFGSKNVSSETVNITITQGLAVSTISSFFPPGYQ

[3] = target: recombinant CD16A 158V fused to monomeric human Fc (human, UniProt P08637 17-208); test: ELISA, construct titrated on coated CD16A 158V fused to monomeric human Fc
Sequence of recombinant CD16A 158V fused to monomeric human Fc (P08637 17-208 F176V): as the sequence (P08637 17-208) above, with F160V counted along it

[4] = target: T3, His-tagged human BCMA extracellular domain (human, UniProt Q02223 1-54); test: ELISA, construct captured on coated His-tagged human BCMA extracellular domain
T3 construct: extracellular domain; Coated at 0.4 ug/mL to capture the BCMA-targeting constructs; not shown: His tag
T3 sequence (looked up): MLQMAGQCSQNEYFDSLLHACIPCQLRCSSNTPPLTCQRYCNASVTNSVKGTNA

[5] = target: T4, biotinylated dimeric CD16A antigen (human, UniProt P08637 17-208, limits assumed, biotinylated (site not stated)); test: ELISA, biotinylated dimeric CD16A titrated on construct captured by coated His-tagged human BCMA extracellular domain
T4 construct: Soluble antigen; also called soluble CD16A antigen
T4 sequence (P08637 17-208 limits assumed): as the sequence (P08637 17-208) above
Description: as §1, §2

[6] = target: T1, biotinylated monomeric CD16A antigen; test: ELISA, biotinylated monomeric CD16A titrated on coated construct
[7] = target: T4, biotinylated dimeric CD16A antigen; test: ELISA, biotinylated dimeric CD16A titrated on coated construct

T1 sequence (P08637 17-208 limits assumed): as the sequence (P08637 17-208) above

B1: scFv-IgAb_18 (bispecific antibody)
heavy: EVQLLESGGGLVQPGGSLRLSCAASGFTFSNYDMAWVRQAPGKGLEWVSSISTRGDITSYRDSVKGRFTISRDNSKNTLYLQMNSLRAEDTAVYYCARQDYYTDYMGFAYWGQGTLVTVSSASTKGPSVFPLAPSSKSTSGGTAALGCLVKDYFPEPVTVSWNSGALTSGVHTFPAVLQSSGLYSLSSVVTVPSSSLGTQTYICNVNHKPSNTKVDKKVEPKSCDKTHTCPPCPAPEFEGGPSVFLFPPKPKDTLMISRTPEVTCVVVAVSHEDPEVKFNWYVDGVEVHNAKTKPREEQYNSTYRVVSVLTVLHQDWLNGKEYKCKVSNKALPAPIEKTISKAKGQPREPQVYTLPPSREEMTKNQVSLTCLVKGFYPSDIAVEWESNGQPENNYKTTPPVLDSDGSFFLYSKLTVDKSRWQQGNVFSCSVMHEALHNHYTQKSLSLSPGGGGGSGGGGSGGGGSGGGGSGGGGSGGGGSSYVLTQPSSVSVAPGQTATISCGGHNIGSKNVHWYQQRPGQSPVLVIYQDNKRPSGIPERFSGSNSGNTATLTISGTQAMDEADYYCQVWDNYSVLFGGGTKLTVLGGSGGSGGSGGSGGSGGSGGSQVQLVQSGAEVKKPGESLKVSCKASGYTFTSYYMHWVRQAPGQGLEWMGAIEPMYGSTSYAQKFQGRVTMTRDTSTSTVYMELSSLRSEDTAVYYCARGSAYYYDFADYWGQGTLVTVSS
light: AIQMTQSPSSLSASVGDRVTITCRASEDIYNGLAWYQQKPGKAPKLLIYGASSLQDGVPSRFSGSGSGTEFTLTISSLQPEDEATYYCAGPHKYPLTFGGGTKVEIKRTVAAPSVFIFPPSDEQLKSGTASVVCLLNNFYPREAKVQWKVDNALQSGNSQESVTEQDSKDSTYSLSSTLTLSKADYEKHKVYACEVTHQGLSSPVTKSFNRGEC
- EC50 [1]: 1.98 nM
- EC50 [2]: 0.54 nM
- EC50 [3]: 0.31 nM
- binding result [4]: binds
- EC50 [5]: 0.74 nM
- EC50 [6]: 13.1 nM
- EC50 [7]: 2.31 nM
